Experimental findings from paper PMC8825603 (Theranostics, 2022) are described below.

Common to all, as to test: cellular equilibrium binding of GpL (luciferase)-tagged antibody variants; HEK293 cells transiently transfected with a CD40, 41BB or PD-L1 expression plasmid; increasing concentrations of GpL-tagged antibody variants (cell culture supernatants); 37 °C, 1.5 h; washed three times with ice cold PBS; binding to empty vector cells subtracted; one site specific binding fit
What all share (conditions): partners not purified

In assay [1] the target is T1, PDL1 (UniProt Q9NZQ7).
T1 construct: PDL1, expressed on HEK293 cells from the expression plasmid pCMV6-XL4 (Origene Technologies); also called PD1 Ligand 1; PD1L; source: HEK293, transiently transfected with a PDL1 expression plasmid (pCMV6-XL4, Origene), on cells

In assay [2] the target is T1, PDL1. The source holds these as a separate data set.
The target in the next assay is T2, 41BB (Homo sapiens (species ), UniProt Q07011).
T2 construct: 41BB, expressed on HEK293 cells from an expression plasmid (gift of Pascal Schneider); source: HEK293, transiently transfected with a 41BB expression plasmid, on cells

The next assay concerns the target T3, CD40 (Homo sapiens (species ), UniProt P25942).
T3 construct: CD40, expressed on HEK293 cells from an expression plasmid (gift of Pascal Schneider); also called cluster of differentiation 40; source: HEK293, transiently transfected with a CD40 expression plasmid, on cells

T1 sequence (Q9NZQ7 19-290): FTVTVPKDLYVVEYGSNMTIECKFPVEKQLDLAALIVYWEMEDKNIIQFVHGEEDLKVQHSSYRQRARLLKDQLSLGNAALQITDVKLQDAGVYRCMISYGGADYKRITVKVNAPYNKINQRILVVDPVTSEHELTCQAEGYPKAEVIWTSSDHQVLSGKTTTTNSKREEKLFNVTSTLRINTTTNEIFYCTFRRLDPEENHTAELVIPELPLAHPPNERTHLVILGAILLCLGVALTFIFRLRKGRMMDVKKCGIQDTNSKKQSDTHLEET
T2 sequence (Q07011 24-255): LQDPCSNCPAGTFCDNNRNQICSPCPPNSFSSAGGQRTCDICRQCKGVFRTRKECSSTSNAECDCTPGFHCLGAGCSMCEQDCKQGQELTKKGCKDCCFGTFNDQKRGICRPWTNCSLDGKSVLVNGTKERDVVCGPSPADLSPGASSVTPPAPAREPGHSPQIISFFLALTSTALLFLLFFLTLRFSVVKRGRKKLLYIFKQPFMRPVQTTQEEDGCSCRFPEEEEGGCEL
T3 sequence (P25942 21-277): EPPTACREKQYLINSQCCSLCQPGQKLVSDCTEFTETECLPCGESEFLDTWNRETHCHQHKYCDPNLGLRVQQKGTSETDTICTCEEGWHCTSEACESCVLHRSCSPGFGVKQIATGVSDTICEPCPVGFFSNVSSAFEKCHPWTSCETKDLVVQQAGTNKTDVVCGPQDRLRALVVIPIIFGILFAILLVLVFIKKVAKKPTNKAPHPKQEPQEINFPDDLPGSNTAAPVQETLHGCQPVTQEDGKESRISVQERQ

B1: α41BB-Fab2-GpL (Fab, V domains shown)
VH: QVQLQQSGAEVIKPGASVKLSCKASGYTFSSYWMHWVRQAPGQGLEWIGEINPGNGHTNYNEKFKSRATLTGDTSTSTVYMELSSLRSEDTAVYYCARSFTTARAFAYWGQGTLVTVSS
VL: DIVMTQSPAFLSVTPGEKVTITCRASQTISDYLHWYQQKPDQAPKLLIKYASQSISGIPSRFSGSGSGTDFTFTISSLEAEDAATYYCQDGHSFPPTFGQGTKLEIK
notes: VH of the anti-41BB antibody HBBK4; linker L6; CH1: constant heavy chain of human IgG1, aa 145-260 of GenBank AAA02914.1; numbers count on: GenBank AAA02914.1; VL of the anti-41BB antibody HBBK4; linker L4; constant light chain, aa 105-214 of GenBank BAA97671.1; numbers count on: GenBank BAA97671.1; Bivalent Fab2 format; source: HEK293, transiently transfected (PEI), cell culture supernatant; …
Take B1: the binding result with PDL1 [1] was “no binding”.

B2: α41BB-N297A-GpL (antibody, V domains shown)
VH: QVQLQQSGAEVIKPGASVKLSCKASGYTFSSYWMHWVRQAPGQGLEWIGEINPGNGHTNYNEKFKSRATLTGDTSTSTVYMELSSLRSEDTAVYYCARSFTTARAFAYWGQGTLVTVSS
VL: DIVMTQSPAFLSVTPGEKVTITCRASQTISDYLHWYQQKPDQAPKLLIKYASQSISGIPSRFSGSGSGTDFTFTISSLEAEDAATYYCQDGHSFPPTFGQGTKLEIK
notes: VH of the anti-41BB antibody HBBK4; linker L6; constant heavy chain of human IgG1, aa 145-476 of GenBank AAA02914.1, with N297A (the footnote prints 'A to N mutation at position 327'); VL of the anti-41BB antibody HBBK4; linker L4; constant light chain, aa 105-214 of GenBank BAA97671.1; numbers count on: GenBank BAA97671.1; IgG1(N297A); also called α41BB-IgG1(N297A); source: HEK293, transiently …
Consider B2, for which the binding result in the assay with PDL1 [1] is recorded as “no binding”.

B3: αCD40-Fab2-GpL (Fab, V domains shown)
VH: QVQLVQSGAEVKKPGASVKVSCTASGFNIKDYYVHWVKQAPGQGLEWMGRIDPEDGDSKYAPKFQGKATMTADTSTSTVYMELSSLRSEDTAVYYCTTSYYVGTYGYWGQGTLVTVSS
VL: DIQMTQSPSSLSASVGDRVTITCSASSSVSYMLWFQQKPGKAPKLLIYSTSNLASGVPSRFSGSGSGTDFTLTISSLQPEDFATYYCQQRTFYPYTFGGGTKVEIK
notes: VH of the anti-CD40 antibody C; linker L6; CH1: constant heavy chain of human IgG1, aa 145-260 of GenBank AAA02914.1; numbers count on: GenBank AAA02914.1; VL of the anti-CD40 antibody C; linker L4; constant light chain, aa 105-214 of GenBank BAA97671.1; numbers count on: GenBank BAA97671.1; Bivalent Fab2 format; source: HEK293, transiently transfected (PEI), cell culture supernatant; copies: 2 + …
In the case of B3, the binding result with PDL1 [2] is on record as “no binding”.

B4: αCD40-N297A-GpL (antibody, V domains shown)
VH: QVQLVQSGAEVKKPGASVKVSCTASGFNIKDYYVHWVKQAPGQGLEWMGRIDPEDGDSKYAPKFQGKATMTADTSTSTVYMELSSLRSEDTAVYYCTTSYYVGTYGYWGQGTLVTVSS
VL: DIQMTQSPSSLSASVGDRVTITCSASSSVSYMLWFQQKPGKAPKLLIYSTSNLASGVPSRFSGSGSGTDFTLTISSLQPEDFATYYCQQRTFYPYTFGGGTKVEIK
notes: VH of the anti-CD40 antibody C; linker L6; constant heavy chain of human IgG1, aa 145-476 of GenBank AAA02914.1, with N297A (the footnote prints 'A to N mutation at position 327'); VL of the anti-CD40 antibody C; linker L4; constant light chain, aa 105-214 of GenBank BAA97671.1; numbers count on: GenBank BAA97671.1; IgG1(N297A); also called αCD40-IgG1(N297A); source: HEK293, transiently …
With B4, the binding result with PDL1 [2] is “no binding”.

B5: αPDL1-N297A-GpL (antibody, V domains shown)
VH: EVQLLESGGGLVQPGGSLRLSCAASGFTFSSYIMMWVRQAPGKGLEWVSSIYPSGGITFYADTVKGRFTISRDNSKNTLYLQMNSLRAEDTAVYYCARIKLGTVTTVDYWGQGTLVTVSS
VL: QSALTQPASVSGSPGQSITISCTGTSSDVGGYNYVSWYQQHPGKAPKLMIYDVSNRPSGVSNRFSGSKSGNTASLTISGLQAEDEADYYCSSYTSSSTRVFGTGTKVTVL
notes: VH of the anti-PDL1 antibody Avelumab; linker L6; constant heavy chain of human IgG1, aa 145-476 of GenBank AAA02914.1, with N297A (the footnote prints 'A to N mutation at position 327'); VL of the anti-PDL1 antibody Avelumab; linker L4; constant light chain, aa 105-214 of GenBank BAA97671.1; numbers count on: GenBank BAA97671.1; IgG1(N297A); also called αPDL1-IgG1(N297A); parental anti-PDL1 …
On to B5, for which the binding result with 41BB and with CD40 was “no binding” throughout.
